Measured values: patent US20220133732A1 (Bicycle, published 2022)
*1 amine or outer side, *2 acyl side, *3 side chain or, on linkers, in order; H or OH if unused. Bridges are numbered along the chain shown (N, C = ends). Where no end group is shown, it is not given here. TBMB = c1c(C[*:1])cc(C[*:3])cc1C[*:2]

Experiments:
[1] = target: T1, human carbonic anhydrase IX (CAIX) (human, UniProt Q16790 38-414); assay: competition fluorescence polarisation, tracer A-(SEQ ID NO:1)-A-Sar6-K(FI)
[2] = target: T1, human carbonic anhydrase IX (CAIX); assay: competition fluorescence polarisation, tracer A-(SEQ ID NO:1)-A-Sar6-K(FI); n = 1
[3] = target: T1, human carbonic anhydrase IX (CAIX); assay: cell-based or functional assay

Ki [1] [nM] | Ki [2] [nM] | Enzyme IC50 [3] [nM] | Binder
– | 39.8 | – | ACGECWVDGWVSCA (linker 2-5-13 via TBMB, Bicyclic peptide on TBMB scaffold) [61-01-09-N001]
– | 312 | – | ACWWCEDITGRPCA (linker 2-5-13 via TBMB, Bicyclic peptide on TBMB scaffold) [61-18-N001]
81.5 | – | – | ACGECWADGWVPCA (linker 2-5-13 via TBMB, Bicyclic peptide on TBMB scaffold) [61-01-01-N001]
7.13 | – | 815 | ACTECWVDGWVPCA (linker 2-5-13 via TBMB, Bicyclic peptide on TBMB scaffold) [61-01-02-N001]

The remaining lines, values behind:

Binder | Ki [1] [nM] | Ki [2] [nM] | Enzyme IC50 [3] [nM]
ACSECWVDGWVSCA (linker 2-5-13 via TBMB, Bicyclic peptide on TBMB scaffold) [61-01-03-N001] | 22.7 | – | –
ACRECWVDGWVECA (linker 2-5-13 via TBMB, Bicyclic peptide on TBMB scaffold) [61-01-08-N001] | – | 5.6 | –
ACTECWIDGWVPCA (linker 2-5-13 via TBMB, Bicyclic peptide on TBMB scaffold) [61-01-07-N001] | 7.9 | – | –
ACLECWVDGWVPCA (linker 2-5-13 via TBMB, Bicyclic peptide on TBMB scaffold) [61-01-04-N001] | 5.77 | – | 855
ACEECWVDGWVPCA (linker 2-5-13 via TBMB, Bicyclic peptide on TBMB scaffold) [61-01-05-N001] | – | 12.2 | –
